Test results as given in patent publication US20260097113A1 (Pfizer, published 2026).

T1: RSV F protein of subtype A comprising a polypeptide of SEQ ID NO: 1 and a polypeptide of SEQ ID NO: 2 (RSV subtype A, UniProt P11209 137-513; P03420 26-109)
T1 construct: Stabilized prefusion F trimer made of three F2-F1 heterodimers; Produced recombinantly in CHO cells; also called RSV A; RSVA
T1 chain 1: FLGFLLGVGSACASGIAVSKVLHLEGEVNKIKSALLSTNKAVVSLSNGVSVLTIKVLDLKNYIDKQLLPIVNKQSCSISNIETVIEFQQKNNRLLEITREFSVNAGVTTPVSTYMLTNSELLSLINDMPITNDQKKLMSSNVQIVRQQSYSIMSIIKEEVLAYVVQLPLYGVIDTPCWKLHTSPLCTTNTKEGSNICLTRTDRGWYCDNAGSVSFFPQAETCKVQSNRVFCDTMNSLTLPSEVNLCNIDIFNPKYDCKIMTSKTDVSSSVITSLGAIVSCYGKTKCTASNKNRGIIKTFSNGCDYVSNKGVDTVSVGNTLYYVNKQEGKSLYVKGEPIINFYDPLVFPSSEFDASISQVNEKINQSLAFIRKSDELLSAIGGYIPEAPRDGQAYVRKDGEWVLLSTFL
T1 chain 2: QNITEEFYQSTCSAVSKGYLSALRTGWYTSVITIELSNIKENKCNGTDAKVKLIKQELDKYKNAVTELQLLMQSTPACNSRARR

B1: AM14 (trimeric prefusion specific antibody of the AM14 ELISA) (antibody, V domains shown)
VH: EVQLVESGGGVVQPGRSLRLSCAASGFSFSHYAMHWVRQAPGKGLEWVAVISYDGENTYYADSVKGRFSISRDNSKNTVSLQMNSLRPEDTALYYCARDRIVDDYYYYGMDVWGQGATVTVSS
VL: DIQMTQSPSSLSASVGDRVTITCQASQDIKKYLNWYHQKPGKVPELLMHDASNLETGVPSRFSGRGSGTDFTLTISSLQPEDIGTYYCQQYDNLPPLTFGGGTKVEIKR
notes: Antibody as used in the AM14 ELISA, detected with an HRP-labeled secondary antibody

What was measured:
[1] = biological target: RSV A + RSV B bivalent composition (RSV subtype A; RSV subtype B); experiment: AM14 Fab titration by SEC; Target cycle; T0
[2] = biological target: RSV A + RSV B bivalent composition (RSV subtype A; RSV subtype B); experiment: AM14 Fab titration by SEC; Low-Fast cycle; 1 M 40°C
[3] = biological target: RSV A + RSV B bivalent composition (RSV subtype A; RSV subtype B); experiment: AM14 Fab titration by SEC; Target cycle; 1 M 40°C (second value)
[4] = biological target: RSV A + RSV B bivalent composition (RSV subtype A; RSV subtype B); experiment: AM14 Fab titration by SEC; Low-Fast cycle; 3 M 25°C (second value)
[5] = biological target: RSV A + RSV B bivalent composition (RSV subtype A; RSV subtype B); experiment: AM14 Fab titration by SEC; Low-Fast cycle; 3 M 40°C (second value)
[6] = biological target: RSV A + RSV B bivalent composition (RSV subtype A; RSV subtype B); experiment: AM14 Fab titration by SEC; Low-Fast cycle; 1 M 2-8°C (second value)
[7] = biological target: RSV A + RSV B bivalent composition (RSV subtype A; RSV subtype B); experiment: AM14 Fab titration by SEC; High-Slow 2 cycle; 1 M 40°C (second value)
[8] = biological target: RSV A + RSV B bivalent composition (RSV subtype A; RSV subtype B); experiment: AM14 Fab titration by SEC; High-Slow 2 cycle; 1 M 2-8°C (second value)
[9] = biological target: T1, RSV F protein of subtype A comprising a …; experiment: AM14 ELISA; F8 (pH 7, 50 mM NaCl, 0% sucrose); 2 wk 5°C
[10] = biological target: T1, RSV F protein of subtype A comprising a …; experiment: AM14 ELISA; F16 (pH 6, 0 mM NaCl, 0% sucrose); 2 wk 25°C
[11] = biological target: T1, RSV F protein of subtype A comprising a …; experiment: AM14 ELISA; F6 (pH 7, 0 mM NaCl, 4.5% sucrose); 2 wk 5°C
[12] = biological target: T1, RSV F protein of subtype A comprising a …; experiment: AM14 ELISA; F8 (pH 7, 50 mM NaCl, 0% sucrose); 2 wk 25°C
[13] = biological target: T1, RSV F protein of subtype A comprising a …; experiment: AM14 ELISA; F4 (pH 6, 50 mM NaCl, 4.5% sucrose); 1 wk 5°C
[14] = biological target: T1, RSV F protein of subtype A comprising a …; experiment: AM14 ELISA; F6 (pH 7, 0 mM NaCl, 4.5% sucrose); 1 wk 25°C
[15] = biological target: T1, RSV F protein of subtype A comprising a …; experiment: AM14 ELISA; F6 (pH 7, 0 mM NaCl, 4.5% sucrose); 2 wk 25°C
[16] = biological target: T1, RSV F protein of subtype A comprising a …; experiment: AM14 ELISA; F7 (pH 6, 100 mM NaCl, 0% sucrose); 2 wk 25°C
[17] = biological target: T1, RSV F protein of subtype A comprising a …; experiment: AM14 ELISA; F9 (pH 8, 50 mM NaCl, 4.5% sucrose); 2 wk 5°C
[18] = biological target: T1, RSV F protein of subtype A comprising a …; experiment: AM14 ELISA; F19 (pH 7, 50 mM NaCl, 3% trehalose + 3% mannitol); 2 wk 5°C

Molecule | Prefusion Content (%) [1] [%] | Prefusion Content (%) [2] [%] | Prefusion Content (%) [3] [%] | Prefusion Content (%) [4] [%] | Prefusion Content (%) [5] [%] | Prefusion Content (%) [6] [%] | Prefusion Content (%) [7] [%] | Prefusion Content (%) [8] [%] | AM14 prefusion content (%), relative to standard [9] [%] | AM14 prefusion content (%), relative to standard [10] [%] | AM14 prefusion content (%), relative to standard [11] [%] | AM14 prefusion content (%), relative to standard [12] [%] | AM14 prefusion content (%), relative to standard [13] [%] | AM14 prefusion content (%), relative to standard [14] [%] | AM14 prefusion content (%), relative to standard [15] [%] | AM14 prefusion content (%), relative to standard [16] [%] | AM14 prefusion content (%), relative to standard [17] [%] | AM14 prefusion content (%), relative to standard [18] [%]
AM14 Fab | 68 | 65 | 66 | 68 | 66 | 53 | 68 | 65 | – | – | – | – | – | – | – | – | – | –
B1 | – | – | – | – | – | – | – | – | 101 | 76 | 77 | 85 | 76 | 102 | 83 | 55 | 92 | 75
